Assay results from the supplement of paper PMC10567573.

B1: MGC16075 (parent)
chain: AGSRQALSFEVPPCNYDPEKWIQ

Variants of: B1
Assay: protein stability index of a GFP-peptide fusion (GPS, HEK-293T) (PSI 1-6); higher = more stable
Conditions: c terminus: native
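Further: lentivirally expressed fusions sorted by FACS into six bins by GFP to DsRed ratio, PSI derived from sequencing read proportions per bin multiplied by bin number.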

Which protein stability index does the source give for AGSRQALSFEVSPCNYDPEKWIQ [P12S] here?
Its protein stability index is 1.71.

For AGSRQALSFEVVPCNYDPEKWIQ [P12V], which protein stability index is on record?
The protein stability index was 2.72.

With AGSRQALSFEVNPCNYDPEKWIQ [P12N] as the variant, how does the protein stability index read?
Its protein stability index is 1.67.

With AGSRQALSFEVRPCNYDPEKWIQ [P12R] as the variant, how does the protein stability index read?
The protein stability index was 1.81.

Which protein stability index does the source give for AGSRQALSFEVLPCNYDPEKWIQ [P12L] here?
The protein stability index was 4.23.

For AGSRQALSFEVIPCNYDPEKWIQ [P12I], which protein stability index is on record?
The protein stability index was 1.17.

Which protein stability index does the source give for AGSRQALSFEVQPCNYDPEKWIQ [P12Q] here?
The protein stability index was 2.

With AGSRQALSFEVKPCNYDPEKWIQ [P12K] as the variant, how does the protein stability index read?
Its protein stability index is 1.73.

Which protein stability index does the source give for AGSRQALSFEVDPCNYDPEKWIQ [P12D] here?
Its protein stability index is 1.97.

With AGSRQALSFEVGPCNYDPEKWIQ [P12G] as the variant, how does the protein stability index read?
The protein stability index was 1.37.

With AGSRQALSFEVEPCNYDPEKWIQ [P12E] as the variant, how does the protein stability index read?
The protein stability index was 2.14.

For AGSRQALSFEVTPCNYDPEKWIQ [P12T], which protein stability index is on record?
Its protein stability index is 1.99.

Which protein stability index does the source give for AGSRQALSFEVMPCNYDPEKWIQ [P12M] here?
The protein stability index was 2.33.

With AGSRQALSFEVCPCNYDPEKWIQ [P12C] as the variant, how does the protein stability index read?
Its protein stability index is 2.41.

With AGSRQALSFEVFPCNYDPEKWIQ [P12F] as the variant, how does the protein stability index read?
The protein stability index was 2.92.

Which protein stability index does the source give for AGSRQALSFEVAPCNYDPEKWIQ [P12A] here?
Its protein stability index is 1.79.

For AGSRQALSFEVWPCNYDPEKWIQ [P12W], which protein stability index is on record?
The protein stability index was 2.69.

For AGSRQALSMEVPPCNYDPEKWIQ [F9M], which protein stability index is on record?
The protein stability index was 2.29.

Which protein stability index does the source give for AGSRQALSQEVPPCNYDPEKWIQ [F9Q] here?
The protein stability index was 3.05.

Which protein stability index does the source give for AGSRQALSNEVPPCNYDPEKWIQ [F9N] here?
Its protein stability index is 3.75.

Which protein stability index does the source give for AGSRQALSHEVPPCNYDPEKWIQ [F9H] here?
Its protein stability index is 2.86.

With AGSRQALSSEVPPCNYDPEKWIQ [F9S] as the variant, how does the protein stability index read?
The protein stability index was 2.77.

With AGSRQALSPEVPPCNYDPEKWIQ [F9P] as the variant, how does the protein stability index read?
The protein stability index was 3.09.

With AGSRQALSREVPPCNYDPEKWIQ [F9R] as the variant, how does the protein stability index read?
Its protein stability index is 2.78.

For AGSRQALSLEVPPCNYDPEKWIQ [F9L], which protein stability index is on record?
The protein stability index was 2.48.

With AGSRQALSKEVPPCNYDPEKWIQ [F9K] as the variant, how does the protein stability index read?
The protein stability index was 3.19.

Which protein stability index does the source give for AGSRQALSCEVPPCNYDPEKWIQ [F9C] here?
The protein stability index was 2.57.

For AGSRQALSYEVPPCNYDPEKWIQ [F9Y], which protein stability index is on record?
The protein stability index was 2.

With AGSRQALSEEVPPCNYDPEKWIQ [F9E] as the variant, how does the protein stability index read?
The protein stability index was 3.49.

For AGSRQALSAEVPPCNYDPEKWIQ [F9A], which protein stability index is on record?
Its protein stability index is 2.63.

With AGSRQALSWEVPPCNYDPEKWIQ [F9W] as the variant, how does the protein stability index read?
Its protein stability index is 2.5.

Which protein stability index does the source give for AGSRQALSDEVPPCNYDPEKWIQ [F9D] here?
Its protein stability index is 3.05.

With AGSRQALSTEVPPCNYDPEKWIQ [F9T] as the variant, how does the protein stability index read?
Its protein stability index is 2.79.

Which protein stability index does the source give for AGSRQALSIEVPPCNYDPEKWIQ [F9I] here?
The protein stability index was 2.07.

With AGSRQALSGEVPPCNYDPEKWIQ [F9G] as the variant, how does the protein stability index read?
The protein stability index was 3.14.

With AGSRQALSVEVPPCNYDPEKWIQ [F9V] as the variant, how does the protein stability index read?
The protein stability index was 2.57.

With AGSRQALSFERPPCNYDPEKWIQ [V11R] as the variant, how does the protein stability index read?
Its protein stability index is 2.

With AGSRQALSFEEPPCNYDPEKWIQ [V11E] as the variant, how does the protein stability index read?
Its protein stability index is 2.07.

Which protein stability index does the source give for AGSRQALSFETPPCNYDPEKWIQ [V11T] here?
The protein stability index was 1.89.

Which protein stability index does the source give for AGSRQALSFEQPPCNYDPEKWIQ [V11Q] here?
The protein stability index was 2.38.

For AGSRQALSFEPPPCNYDPEKWIQ [V11P], which protein stability index is on record?
Its protein stability index is 1.75.

Which protein stability index does the source give for AGSRQALSFEWPPCNYDPEKWIQ [V11W] here?
Its protein stability index is 2.04.

Which protein stability index does the source give for AGSRQALSFEKPPCNYDPEKWIQ [V11K] here?
The protein stability index was 2.61.

For AGSRQALSFELPPCNYDPEKWIQ [V11L], which protein stability index is on record?
The protein stability index was 1.3.

Which protein stability index does the source give for AGSRQALSFEMPPCNYDPEKWIQ [V11M] here?
The protein stability index was 2.11.

Which protein stability index does the source give for AGSRQALSFEDPPCNYDPEKWIQ [V11D] here?
The protein stability index was 2.93.

With AGSRQALSFENPPCNYDPEKWIQ [V11N] as the variant, how does the protein stability index read?
Its protein stability index is 1.68.

For AGSRQALSFEYPPCNYDPEKWIQ [V11Y], which protein stability index is on record?
The protein stability index was 3.25.

With AGSRQALSFECPPCNYDPEKWIQ [V11C] as the variant, how does the protein stability index read?
Its protein stability index is 2.02.

For AGSRQALSFEAPPCNYDPEKWIQ [V11A], which protein stability index is on record?
Its protein stability index is 2.52.

Which protein stability index does the source give for AGSRQALSFEGPPCNYDPEKWIQ [V11G] here?
Its protein stability index is 1.63.

Which protein stability index does the source give for AGSRQALSFEHPPCNYDPEKWIQ [V11H] here?
The protein stability index was 1.93.

Which protein stability index does the source give for AGSRQALSFEIPPCNYDPEKWIQ [V11I] here?
The protein stability index was 2.6.

Which protein stability index does the source give for AGSRQALSFESPPCNYDPEKWIQ [V11S] here?
The protein stability index was 1.84.

Which protein stability index does the source give for AGSRQALSFEVPWCNYDPEKWIQ [P13W] here?
The protein stability index was 1.98.

With AGSRQALSFEVPICNYDPEKWIQ [P13I] as the variant, how does the protein stability index read?
Its protein stability index is 2.7.

With AGSRQALSFEVPGCNYDPEKWIQ [P13G] as the variant, how does the protein stability index read?
The protein stability index was 2.1.

With AGSRQALSFEVPLCNYDPEKWIQ [P13L] as the variant, how does the protein stability index read?
The protein stability index was 1.62.

Which protein stability index does the source give for AGSRQALSFEVPKCNYDPEKWIQ [P13K] here?
The protein stability index was 2.34.

With AGSRQALSFEVPYCNYDPEKWIQ [P13Y] as the variant, how does the protein stability index read?
Its protein stability index is 2.88.

For AGSRQALSFEVPNCNYDPEKWIQ [P13N], which protein stability index is on record?
Its protein stability index is 1.27.

For AGSRQALSFEVPECNYDPEKWIQ [P13E], which protein stability index is on record?
Its protein stability index is 1.44.

For AGSRQALSFEVPVCNYDPEKWIQ [P13V], which protein stability index is on record?
The protein stability index was 2.19.

For AGSRQALSFEVPACNYDPEKWIQ [P13A], which protein stability index is on record?
Its protein stability index is 1.43.

With AGSRQALSFEVPSCNYDPEKWIQ [P13S] as the variant, how does the protein stability index read?
The protein stability index was 2.66.

With AGSRQALSFEVPMCNYDPEKWIQ [P13M] as the variant, how does the protein stability index read?
The protein stability index was 1.3.

With AGSRQALSFEVPRCNYDPEKWIQ [P13R] as the variant, how does the protein stability index read?
The protein stability index was 1.29.

For AGSRQALSFEVPFCNYDPEKWIQ [P13F], which protein stability index is on record?
The protein stability index was 2.1.

For AGSRQALSFEVPTCNYDPEKWIQ [P13T], which protein stability index is on record?
Its protein stability index is 1.99.

For AGSRQALSFEVPDCNYDPEKWIQ [P13D], which protein stability index is on record?
Its protein stability index is 1.8.

Which protein stability index does the source give for AGSRQALSFEVPCCNYDPEKWIQ [P13C] here?
The protein stability index was 3.

For AGSRQALSFEVPHCNYDPEKWIQ [P13H], which protein stability index is on record?
The protein stability index was 1.2.

Which protein stability index does the source give for AGSRQALSFEVPQCNYDPEKWIQ [P13Q] here?
Its protein stability index is 2.03.

Which protein stability index does the source give for AGSRQALSFEVPPDNYDPEKWIQ [C14D] here?
The protein stability index was 2.

For AGSRQALSFEVPPGNYDPEKWIQ [C14G], which protein stability index is on record?
The protein stability index was 1.42.

Which protein stability index does the source give for AGSRQALSFEVPPENYDPEKWIQ [C14E] here?
The protein stability index was 2.21.

With AGSRQALSFEVPPKNYDPEKWIQ [C14K] as the variant, how does the protein stability index read?
Its protein stability index is 1.64.

For AGSRQALSFEVPPHNYDPEKWIQ [C14H], which protein stability index is on record?
The protein stability index was 2.1.

For AGSRQALSFEVPPANYDPEKWIQ [C14A], which protein stability index is on record?
Its protein stability index is 2.28.

Which protein stability index does the source give for AGSRQALSFEVPPINYDPEKWIQ [C14I] here?
The protein stability index was 1.59.

For AGSRQALSFEVPPFNYDPEKWIQ [C14F], which protein stability index is on record?
Its protein stability index is 1.5.

Which protein stability index does the source give for AGSRQALYFEVPPCNYDPEKWIQ [S8Y] here?
Its protein stability index is 3.25.

Which protein stability index does the source give for AGSRQALSFAVPPCNYDPEKWIQ [E10A] here?
Its protein stability index is 3.25.

For AGSRQALSFGVPPCNYDPEKWIQ [E10G], which protein stability index is on record?
The protein stability index was 1.83.

For AGSRQALSFYVPPCNYDPEKWIQ [E10Y], which protein stability index is on record?
Its protein stability index is 1.75.

With AGSRQALSFIVPPCNYDPEKWIQ [E10I] as the variant, how does the protein stability index read?
Its protein stability index is 2.29.

For AGSRQALSFCVPPCNYDPEKWIQ [E10C], which protein stability index is on record?
The protein stability index was 2.27.

Which protein stability index does the source give for AGSRQALSFKVPPCNYDPEKWIQ [E10K] here?
Its protein stability index is 1.67.

For AGSRQALSFQVPPCNYDPEKWIQ [E10Q], which protein stability index is on record?
The protein stability index was 1.23.

Which protein stability index does the source give for AGSRQALSFPVPPCNYDPEKWIQ [E10P] here?
The protein stability index was 2.3.

With AGSRQALSFRVPPCNYDPEKWIQ [E10R] as the variant, how does the protein stability index read?
The protein stability index was 1.97.

Which protein stability index does the source give for AGSRQALSFDVPPCNYDPEKWIQ [E10D] here?
Its protein stability index is 2.6.

With AGSRQALSFMVPPCNYDPEKWIQ [E10M] as the variant, how does the protein stability index read?
The protein stability index was 2.56.

For AGSRQALSFSVPPCNYDPEKWIQ [E10S], which protein stability index is on record?
The protein stability index was 2.44.

With AGSRQALSFVVPPCNYDPEKWIQ [E10V] as the variant, how does the protein stability index read?
Its protein stability index is 1.08.

For AGSRQALSFNVPPCNYDPEKWIQ [E10N], which protein stability index is on record?
The protein stability index was 1.7.

With AGSRQALSFHVPPCNYDPEKWIQ [E10H] as the variant, how does the protein stability index read?
The protein stability index was 3.09.
